The test has as its target Vimentin from bovine aortic endothelial cells (bovine, UniProt P48616 2-466). Nature of the test: affinity chromatography of BAEC cell fractions on immobilized peptide. As to the method: Membrane and cytosol fractions from human bone marrow endothelial cells and bovine aortic endothelial cells were prepared and used to identify the components from within these fractions that bind to the peptides using affinity chromatography). […] Cell surface nucleolin is present at higher concentrations in actively dividing cells and is down regulated in cells when they become quiescent. Nucleolin is the apparent cell surface receptor of E-coli intimin-gamma. Cell bound intimin has been proposed to trigger a host cell response similar to the extension of filipodia when cells bind to laminin. […] Table 3 provides a summary of peptide-binding partners (putative receptors) identified by affinity chromatography of cell lysates.

These results are taken from patent US20080214468A1 (UNIVERSITY OF VIRGINIA PATENT FOUNDATION, published 2008).

Where no end group is shown, it is not given here.

Vimentin from bovine aortic endothelial cells, sequence (P48616 2-466 limits assumed): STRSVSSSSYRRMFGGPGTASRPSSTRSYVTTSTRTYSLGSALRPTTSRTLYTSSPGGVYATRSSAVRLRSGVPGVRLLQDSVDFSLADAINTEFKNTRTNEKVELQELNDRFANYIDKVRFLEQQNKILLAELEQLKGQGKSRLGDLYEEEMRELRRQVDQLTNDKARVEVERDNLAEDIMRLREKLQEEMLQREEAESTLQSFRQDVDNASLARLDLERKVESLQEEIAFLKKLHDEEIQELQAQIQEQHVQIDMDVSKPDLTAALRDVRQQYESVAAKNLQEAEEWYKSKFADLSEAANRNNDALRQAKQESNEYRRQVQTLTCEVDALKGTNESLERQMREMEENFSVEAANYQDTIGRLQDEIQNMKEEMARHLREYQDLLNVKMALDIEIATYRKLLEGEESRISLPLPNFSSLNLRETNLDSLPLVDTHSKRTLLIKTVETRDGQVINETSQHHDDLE

On to QRSWTLDSALSMGGGS (also: biotinylated, position not given here, 12-mer with the C-terminal GGGS linker) [peptide L12 (SEQ ID NO:7)], for which the binding result is recorded as “binds”.

Turning to SYSQMDPPRSLPGGGS (also: biotinylated, position not given here, 12-mer with the C-terminal GGGS linker) [peptide R8 (SEQ ID NO:14)], the binding result is reported as “binds”.
